# Laboratory results from patent US20230183352A1 (published 2023).
# Substitutions are numbered along the chain they refer to.
# B1: QP14441441 (antibody, V domains shown)
# VH: QVQLVQSGAEVKKPGASVKVSCKASGYAFSSYWMNWVRQAPGQGLEWIGQIYPGNGDTTYNGKFKGRVTMTADKSTSTVYMELSSLRSEDTAVYYCARFVKGNAMDYWGQGTLVTVSS
# VL: DIVMTQSPDSLAVSLGERATISCKSSQSLLNSGNQKNYLTWYQQKPGQPPKLLIYWASTRESGVPDRFSGSGSGIDFTLTISSVQAEDVAVYYCQNAYSYPFTFGQGTKLEIKR
# B2: QP14451442 (antibody, V domains shown)
# VH: B1 VH with Y95F
# VL: B1 VL with L52M
# B3: QP14451440 (antibody, V domains shown)
# VH: B1 VH with Y95F
# VL: B1 VL with I75T, V84L
# B4: QP192193 (antibody, V domains shown)
# VH: QVQLQQSGAELVRPGSSVKISCKASGYAFSSYWMNWVKQRPGQGLEWIGQIYPGNGDTTYNGKFKGQATLTADKSSSTVYMQLSSLTSEDSAVYFCARFVKGNAMDYWGQGTSVTVSS
# VL: DIVMTQSPSSLTVTAGEKVTMSCKSSQSLLNSGNQKNYLTWYQQNPGQPPKMLIYWASTRESGVPDRFTGSGSGIDFSLTISSVQAEDLALYYCQNAYSYPFTFGSGTKLEIK
# B5: QP14511447 (antibody, V domains shown)
# VH: EVQLVESGGGLVQPGGSLRLSCAASGFTFSSFGMHWVRQAPGKGLEWVAYISSGSNSIYYVDTVKGRFTISRDNAKNSLYLQMNSLRSEDTAVYYCARNAYYGNSFDYWGQGTLVTVSS
# VL: DIVMTQSPDSLAVSLGERATISCKSSQSLLNSGNQKNYLTWYQQKPGQPPKLLIYWASTRESGVPDRFSGSGSGTDFTLTISSLQAEDVAVYFCQNNYYYPLTFGGGTKVEIK
# B6: QP14631462 (antibody, V domains shown)
# VH: QVQLVQSGAEVKKPGASVKVSCKASGYTFTSYIMHWVRQAPGQGLEWMGYINPYNDGTKYNEKFKGRVTMTRDTSTSTVYMELSSLRSEDTAVYYCARLGFTTRNAMDYWGQGTLVTVSS
# VL: DIVMTQSPDSLAVSLGERATINCKSSQSLLNSGNQKNYLAWYQQKPGQPPKLLIYGASTRESGVPDRFTGSGSGTDFTLTISSVQAEDVAVYYCQNDHSYPFTFGQGTKLEIK
# B7: QP14491447 (antibody, V domains shown)
# VH: B5 VH with A49S, S88D
# VL: B5 VL
# B8: QP207208 (antibody, V domains shown)
# VH: EVQLQQSGPELVKPGASVKMSCKASGYTFTSYIMHWVKQKPGQGLEWIGYINPYNDGTKYNEKFKGKATLTSDKSSSTVYMELSSLTSEDSAVYCCARLGFTTRNAMDYWGQGTSVTVSS
# VL: B6 VL with D9S, A12S, L15A, R18K, A19V, I21M, V89L, Q106S
# B9: QP14431440 (antibody, V domains shown)
# VH: B1 VH with I48M, A72R, K74T
# VL: B5 VL with F93Y, N97A, Y99S, L102F, G106Q, V110L
# B10: QP14431439 (antibody, V domains shown)
# VH: B1 VH with I48M, A72R, K74T
# VL: B6 VL with A40T, G56W, T69S, V84L, D97A, H98Y
# B11: QP14641461 (antibody, V domains shown)
# VH: B6 VH with Q1E, M48I, M70L, T74K
# VL: B1 VL with S22N, T40A, W56G, S69T, I75T, V84L, A97D, Y98H
# B12: QP14651460 (antibody, V domains shown)
# VH: B6 VH with Q1E, M48I, M70L, R72S, T74K
# VL: B1 VL with S22N, T40A, W56G, I75T, V84L, A97D, Y98H
# B13: QP190191 (antibody, V domains shown)
# VH: EVKLVESGGGLVKPGGSLKLSCAASGFTFSNYAMSWVRQTPEKRLEWVASIISGGRTYYLDSEKGRFTISRDNARNNLYLQMSSLRSEDTAMYYCTRIYYGNSFDYWGQGTTLTVSS
# VL: B4 VL with L11Q, N45K, M52L, I75T, S78T, S83N, V84M, L91V, A97D
# B14: QP14381433 (antibody, V domains shown)
# VH: EVQLVESGGGLVKPGGSLRLSCAASGFTFSNYAMSWVRQAPGKRLEWVASIISGGRTYYLDSEKGRFTISRDNAKNSLYLQMNSLRAEDTAVYYCTRIYYGNSFDYWGQGTLVTVSS
# VL: B6 VL with A40T, G56W, T69S, V84L, H98Y
# B15: QP14361434 (antibody, V domains shown)
# VH: B14 VH with R44G, A49S
# VL: B6 VL with N22S, A40T, G56W, T69S, V84L, H98Y
# B16: QP14371434 (antibody, V domains shown)
# VH: B14 VH with R44G
# VL: B6 VL with N22S, A40T, G56W, T69S, V84L, H98Y
# B17: QP14381434 (antibody, V domains shown)
# VH: B14 VH
# VL: B6 VL with N22S, A40T, G56W, T69S, V84L, H98Y
# B18: QP14361433 (antibody, V domains shown)
# VH: B14 VH with R44G, A49S
# VL: B6 VL with A40T, G56W, T69S, V84L, H98Y
# B19: QP14381435 (antibody, V domains shown)
# VH: B14 VH
# VL: B6 VL with N22S, A40T, G56W, V84L, H98Y
# B20: QP14631460 (antibody, V domains shown)
# VH: B6 VH
# VL: B6 VL with T69S, V84L
# B21: QP14361435 (antibody, V domains shown)
# VH: B14 VH with R44G, A49S
# VL: B1 VL with S69T, I75T, V84L, A97D
# B22: QP14371433 (antibody, V domains shown)
# VH: B14 VH with R44G
# VL: B1 VL with S22N, I75T, V84L, A97D
# B23: QP14371435 (antibody, V domains shown)
# VH: B14 VH with R44G
# VL: B1 VL with S69T, I75T, V84L, A97D
# Target: T1, Claudin 18.2 (CLDN18.2), expressed on CHOS-CLDN 18.2 / HEK293-CLDN 18.2 / HCC827-CLDN 18.2 cells (human, UniProt P56856 1-261)
# Assay: ELISA
row,EC50,Binder
1,0.106 µg/mL,B1
2,0.0977 µg/mL,B2
3,0.0995 µg/mL,B3

# Target: T1, Claudin 18.2 (CLDN18.2), expressed on …
# Assay: cell ELISA
row,EC50,Binder
1,0.101 µg/mL,B4
2,0.202 µg/mL,B5
3,0.105 µg/mL,B6
4,0.148 µg/mL,B7
5,0.179 µg/mL,B8
6,0.124 µg/mL,B9
7,0.111 µg/mL,B10

# Target: T1, Claudin 18.2 (CLDN18.2), expressed on …
# Assay: ELISA
# Remark: another data set of the same source
row,EC50,Binder
1,0.0783 µg/mL,B11
2,0.0904 µg/mL,B12

# Target: T1, Claudin 18.2 (CLDN18.2), expressed on …
# Assay: cell ELISA
# Remark: another data set of the same source
row,EC50,Binder
1,0.155 µg/mL,B4

# Target: T1, Claudin 18.2 (CLDN18.2), expressed on …
# Assay: cell ELISA
# Remark: another data set of the same source
row,EC50,Binder
1,0.178 µg/mL,B13
2,0.125 µg/mL,B14
3,0.17 µg/mL,B15
4,0.284 µg/mL,B16
5,0.145 µg/mL,B17
6,0.112 µg/mL,B18
7,0.196 µg/mL,B19
8,0.135 µg/mL,B20
9,0.119 µg/mL,B8
10,0.109 µg/mL,B21
11,0.108 µg/mL,B22
12,0.134 µg/mL,B23
